Test results as given in the supplement of paper PMC10567573.

B1: EHMT1 (parent)
chain: SARQGELQKVLLMLVDGIDPNFKM

Variants of: B1
Test: protein stability index of a GFP-peptide fusion (GPS, HEK-293T) (PSI 1-6); higher = more stable
Details: c terminus: a fixed tail appended
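Note: lentivirally expressed fusions sorted by FACS into six bins by GFP to DsRed ratio, PSI derived from sequencing read proportions per bin multiplied by bin number.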

| Variant | protein stability index |
| --- | --- |
| SARQGELQKVLLMLVDGIDPLFKM [N21L] | 3.55 |
| SARQGELQKVLLMLVDGIDPNGKM [F22G] | 2.71 |
| SARQGELQKVLLMLVMGIDPNFKM [D16M] | 2.7 |
| SARQGELQKVLLMLVDGWDPNFKM [I18W] | 2.54 |
| SARQGELQKVLLMLRDGIDPNFKM [V15R] | 1.65 |
| SARQGELQKVGLMLVDGIDPNFKM [L11G] | 3.6 |
| SARQGELQKVLLMLVDGIDPNFKN [M24N] | 1.48 |
| SAEQGELQKVLLMLVDGIDPNFKM [R3E] | 2.2 |
| SARQGELQKVLLMLVDGIDPNFLM [K23L] | 1.88 |
| DARQGELQKVLLMLVDGIDPNFKM [S1D] | 1.18 |
| SARQGELQKQLLMLVDGIDPNFKM [V10Q] | 1.72 |
| SARQGELQSVLLMLVDGIDPNFKM [K9S] | 2.79 |
| SARTGELQKVLLMLVDGIDPNFKM [Q4T] | 2.01 |
| SARQGELQKVLLMLVDGIDPYFKM [N21Y] | 2.93 |
| SARQGELTKVLLMLVDGIDPNFKM [Q8T] | 2.02 |
| SARQGELQKVILMLVDGIDPNFKM [L11I] | 2.1 |
| SARQGELQKVLLMLVDGIDPNFYM [K23Y] | 1.94 |
| SARQGELQKVLLMLEDGIDPNFKM [V15E] | 2.54 |
| SARQGELQKVLLRLVDGIDPNFKM [M13R] | 1.73 |
| SARQGELQKTLLMLVDGIDPNFKM [V10T] | 1.99 |
| SARQGELQKVLLMLMDGIDPNFKM [V15M] | 1.59 |
| SARQGELDKVLLMLVDGIDPNFKM [Q8D] | 1.43 |
| SARQGWLQKVLLMLVDGIDPNFKM [E6W] | 1.89 |
| SARQGELQKVLLMLVDGIDPHFKM [N21H] | 1.97 |

| Variant | protein stability index |
| --- | --- |
| SARQGELQKVLLMLVNGIDPNFKM [D16N] | 2.72 |
| SARQGELQKFLLMLVDGIDPNFKM [V10F] | 4.02 |
| SARQGELQKVLLMLQDGIDPNFKM [V15Q] | 2.17 |
| SARQGHLQKVLLMLVDGIDPNFKM [E6H] | 2.02 |
| SARQGELQKVLLMLVDGIDPNFKT [M24T] | 1.42 |
| SARQGELQKVLLMLVDGIDPNCKM [F22C] | 1.82 |
| SARQGELQKVLLMLVDGIDPNFKQ [M24Q] | 1.84 |
| SARIGELQKVLLMLVDGIDPNFKM [Q4I] | 2.56 |
| SARQGELQKVLHMLVDGIDPNFKM [L12H] | 2.39 |
| SARQGELQKVLLMLVDGIDFNFKM [P20F] | 2.59 |
| SARQGELQKVLLGLVDGIDPNFKM [M13G] | 2.37 |
| SARQGELSKVLLMLVDGIDPNFKM [Q8S] | 1.87 |
| SARQGELQKVLLMLVDGHDPNFKM [I18H] | 2.42 |
| SARQGELQDVLLMLVDGIDPNFKM [K9D] | 1.62 |
| SARQGELQKVLLMLVDGIDPNFKD [M24D] | 3.33 |
| SARQGELQKVLLMLVDGIDPNFPM [K23P] | 2.18 |
| SARQGELQKVLGMLVDGIDPNFKM [L12G] | 2.15 |
| SARQGELQKVLLMLVDKIDPNFKM [G17K] | 1.36 |
| SHRQGELQKVLLMLVDGIDPNFKM [A2H] | 2.27 |
| SARQGELQKVLLMTVDGIDPNFKM [L14T] | 1.7 |
| SARNGELQKVLLMLVDGIDPNFKM [Q4N] | 1.6 |
| SASQGELQKVLLMLVDGIDPNFKM [R3S] | 1.75 |
| SARQRELQKVLLMLVDGIDPNFKM [G5R] | 3.6 |
| SARQGELQKVLLMLVDGIDPNFKA [M24A] | 2.04 |

| Variant | protein stability index |
| --- | --- |
| SARQGELQKVLLDLVDGIDPNFKM [M13D] | 2.97 |
| SARQGELQKVLLMLVDGIDTNFKM [P20T] | 1.27 |
| SARQGELQKVLLMVVDGIDPNFKM [L14V] | 2.53 |
| SARQGELQKVLLMLVDGIDPNFKG [M24G] | 1.23 |
| SARQGELQKVLLMLVWGIDPNFKM [D16W] | 1.96 |
| SARQGELQKVLLHLVDGIDPNFKM [M13H] | 1.88 |
| SARQQELQKVLLMLVDGIDPNFKM [G5Q] | 1.93 |
| KARQGELQKVLLMLVDGIDPNFKM [S1K] | 2.31 |
| SARQNELQKVLLMLVDGIDPNFKM [G5N] | 2.26 |
| SAREGELQKVLLMLVDGIDPNFKM [Q4E] | 1.94 |
| SARQGELQKVLLMLVDGIDPNFEM [K23E] | 1.21 |
| SAIQGELQKVLLMLVDGIDPNFKM [R3I] | 2.15 |
| SARQGELQKVLLMLVDLIDPNFKM [G17L] | 2.07 |
| SARQGELQQVLLMLVDGIDPNFKM [K9Q] | 2.37 |
| SRRQGELQKVLLMLVDGIDPNFKM [A2R] | 1.28 |
| SAYQGELQKVLLMLVDGIDPNFKM [R3Y] | 1.88 |
| SARQGELQKVLLMLVDGYDPNFKM [I18Y] | 2.76 |
| SARQGELQKVLLMLIDGIDPNFKM [V15I] | 1.72 |
| SARQGELQKLLLMLVDGIDPNFKM [V10L] | 1.25 |
| SARQGELQFVLLMLVDGIDPNFKM [K9F] | 3.96 |
| SARQGELQKVLLMLVDGIDPNFHM [K23H] | 2.78 |
| SARQGELQKVLLMLVDGISPNFKM [D19S] | 2.5 |
| SARQGELQKVLLMQVDGIDPNFKM [L14Q] | 2.54 |
| SARQGELQKVLVMLVDGIDPNFKM [L12V] | 1.66 |

| Variant | protein stability index |
| --- | --- |
| SARQGELQKVLSMLVDGIDPNFKM [L12S] | 2.18 |
| SARQGELQKVLLMLVDGIDPNFKY [M24Y] | 1.9 |
| SARQGELQKVLDMLVDGIDPNFKM [L12D] | 2.79 |
| SARQGILQKVLLMLVDGIDPNFKM [E6I] | 3.51 |
| SARQGELYKVLLMLVDGIDPNFKM [Q8Y] | 1.76 |
| SARFGELQKVLLMLVDGIDPNFKM [Q4F] | 3.15 |
| SARQGELQKVLLMLFDGIDPNFKM [V15F] | 3.86 |
| SARQGELQKVLMMLVDGIDPNFKM [L12M] | 3.16 |
| SARQGEKQKVLLMLVDGIDPNFKM [L7K] | 1.67 |
| SARQGELQKWLLMLVDGIDPNFKM [V10W] | 1.77 |
| HARQGELQKVLLMLVDGIDPNFKM [S1H] | 2.42 |
| SARQGELQKVLLMRVDGIDPNFKM [L14R] | 2.61 |
| SARQGELQKVLLMLVDGIDPNAKM [F22A] | 1.65 |
| SLRQGELQKVLLMLVDGIDPNFKM [A2L] | 3.91 |
| SARQGELQKVLLMLVDGITPNFKM [D19T] | 3.29 |
| SARQGELQKVLLMMVDGIDPNFKM [L14M] | 3.99 |
| SARQGELQKVLPMLVDGIDPNFKM [L12P] | 3.64 |
| SARQGELQKYLLMLVDGIDPNFKM [V10Y] | 3.4 |
| SARQGELQKVYLMLVDGIDPNFKM [L11Y] | 1.65 |
| SARQGYLQKVLLMLVDGIDPNFKM [E6Y] | 3.65 |
| SARQGELQKVLLMLVDGIDPNYKM [F22Y] | 1.39 |
| SARQGELIKVLLMLVDGIDPNFKM [Q8I] | 2.01 |
